According to US20130310313A1 (CHINA MEDICAL UNIVERSITY, published 2013):

target: T1, insulin receptor on human lymphocyte cells (IM-9) (human, UniProt P06213 28-1382); assay: whole cell receptor binding assay on IM-9 cells with 125I-insulin; EC50 of promoting 125I-insulin binding
T1 construct: whole, on cells; Endogenous receptor of IM-9 cells; also called IR; insulin receptors

Binder	EC50 [nM]
VIIKVGSGATKDFRCDRVR (synthetic) [IRBP-34-52 (SEQ ID NO:4)]	> 25
SRCQGKSSWPGLVGSTGAA (synthetic) [IRBP-1-19 (SEQ ID NO:2)]	15.3
IVARPPTIG (synthetic) [IRBP-60-68 (SEQ ID NO:7)]	0.77
DFRCDRVRVWVTERGIVARPPTIG (synthetic) [IRBP-45-68 (SEQ ID NO:5)]	> 25
RVRVWVTERGIVARPPTIG [IRBP-50-68 (SEQ ID NO:6)]	0.73

target: T1, insulin receptor on human lymphocyte …; assay: whole cell receptor binding assay on IM-9 cells with 125I-insulin; EC50 defined as the concentration promoting 50% of the 125I-insulin to bind
Description: (§1) After incubation, the cells were chilled, centrifuged at 2000 rpm for 10 min at 4° C., and the pellets were washed twice with an ice-cold wash buffer (10 mmol/L Tris and 150 mmol/L NaCl, pH 7.6). The pellet was counted by a gamma counter. The assays were performed at least three times for each polypeptide. […] The lower value of EC₅₀ represents a stronger effect on promoting the binding.

Binder	EC50 [nM]
IRBP-1-68 polypeptide (SEQ ID NO:1) (peptide) SRCQGKSSWPQLVGSTGAAAKAVIERENPRVRAVIIKVGSGATKDFRCDRVRVWVTERGIVARPPTIG	4.15

target: T1, insulin receptor on human lymphocyte …; assay: whole cell receptor binding assay on IM-9 cells with 125I-insulin; EC50 of promoting 125I-insulin binding; remark: another data set of the same source
Description: as §1

Binder	EC50 [nM]
IVYQVPTIG (Homologue of IRBP-60-68 with several residues replaced; synthetic) [IRBP-MT (SEQ ID NO:179)]	0.77
KVIRVPRIG (Homologue of IRBP-60-68 with several residues replaced; synthetic) [IRBP-CP (SEQ ID NO:186)]	0.84
IVIRTPIIT (Homologue of IRBP-60-68 with several residues replaced; synthetic) [IRBP-ZE (SEQ ID NO:187)]	4.94
VVTSVPHIT (Homologue of IRBP-60-68 with several residues replaced; synthetic) [IRBP-LU (SEQ ID NO:188)]	9.7
IVVRNPTAG (Homologue of IRBP-60-68 with several residues replaced; synthetic) [IRBP-AT (SEQ ID NO:182)]	9.98
IVTRVPVIG (Homologue of IRBP-60-68 with several residues replaced; synthetic) [IRBP-SN (SEQ ID NO:181)]	9.79
IVARPPAIG [IRBP-MC (SEQ ID NO:21)]	0.86
LVVSPPRIG (Homologue of IRBP-60-68 with several residues replaced; synthetic) [IRBP-CM (SEQ ID NO:184)]	0.92
IVSMVPKIG (Homologue of IRBP-60-68 with several residues replaced; synthetic) [IRBP-VV-1 (SEQ ID NO:185)]	0.96
IVISVPTIG (Homologue of IRBP-60-68 with several residues replaced; synthetic) [IRBP-VV-2 (SEQ ID NO:180)]	4.98
TVAKTPTIG (Homologue of IRBP-60-68 with several residues replaced; synthetic) [IRBP-OS (SEQ ID NO:183)]	9.93
